Results: the nanobody polyreactivity screen of Harvey et al. (2022)

Experiment: yeast display, Sf9 membrane polyspecificity reagent, FACS + sequencing; frameworks hold sequencing errors
Procedure, shortened: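 Nanobodies came from a synthetic yeast display library in Saccharomyces cerevisiae BJ5465, induced with galactose for 36–48 hours and stained for 1 hour at 4 °C with 10% biotinylated, detergent-solubilized Sf9 membrane reagent. Cells were enriched on streptavidin microbeads and then FACS-sorted, with low and high (top ~1%) gates set on anti-HA fluorescence for expression and streptavidin fluorescence for reagent binding. Each polyreactivity label reflects the gate a clone came from. Genes were amplified by colony PCR, sequenced by MiSeq 2 × 250 and filtered by CDR length.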

Sequence	polyreactivity (PSR sort gate)
QVQLVESGGGLVQAGGTLRLSCAASGRTFPLYAMGWYRQAPGKERELVAAISSSGGNTYYADSVKGRFTISRDNAKNTVYLQMNSLKPEDTAVYYCNADVSTNSDRLQLDYWGQGTQVTVSS	low polyreactivity
QVQLVESGGGLVQAGGTLRLSCAASGSIFGNYAMGWDRQAPGKERELVAGISKSGGRTYYADSVKGRFTISRDNAKNTVYLQMNSLKPEDTAVYYCNALVTRYQSLDRLGDYWGQGTQVTVSS	high polyreactivity
QVQLVESGGGLVQAGGTLRLSCAASGSIFRYYAMGWYRQAPGKERELVASSSRRGGSTYYADSVKGRFTISRDIANITVYGQMNSLKPEDTAVYYCAAYSYVYGERYYYWGQGSQVTVSS	high polyreactivity
QVQLVESGGGLVQAGGTLRLSCAASGSTFGPNAMGWYRQAPGKEREVVATIRGSGATTYYADSVKGRFTISRDNAKNTVYLQMNSLKPEDSAVYYCDTAYFSGWYNRYGRATSYDYWGQGTEVTVSS	high polyreactivity
QVQLVESGGGLVQAGGTLRLSCAASGSTFIGNAMGWYRQAPGKVRELVATITSGDSKYADSVKGRFTISRDNAKNTVYLQMNSLKPEDTAVYYCNADPWDIGSTFELDYWGQGTQVTVSS	low polyreactivity
QVQLVESGGGLVQAGGTLRLSCAASGSTFPKYGMGWYRQAPGKEREFVARINWNGGGTYYADSVKGRFTISRDNAKNTVYLHMNSLKPEDTAVYYCNARKRGARFILGYDYWGQGTQVTVSS	low polyreactivity
QVQLVESGGGLVQAGGTLRLSCAASGSTFPPYAMGWYRQAPGKERELVAAISWRGSSTYYADSVKGRFTISRDNAKNTVYLQMNSLKPEDTAVYYCNADGGGSYWLYEHGFARDYWGQGTQVTVSS	high polyreactivity
QVQLVESGGGLVQAGGTLRLSCAASGSTFRWYAMGWYRQAPGKERELVAAITSSGSTYYADSVKGRFTISRDNAKNTVYLQMNSLKPEDTAVYYCAARAKGYWNTYEHDSWGQGIQVTVSS	low polyreactivity
QVQLVESGGGLVQAGGTLRLSCAASGSTFVRNAMGWYRQPPGKERELVAAISVDGSSTYYADSVKGRFTISRDNAKNTVYLQMNSLKPEDTAVYYCNADWDYRDFYDITYDYWGQGTQVTVSS	low polyreactivity
QVQLVESGGGLVQAGGTLRLSCAASGYIFPAYVMGWYRQAPGKERELVAAITSGGGTYYADSVKGRFTISRDNAKYTVYLQMNSLKPEDTAVYYCAARYTQRPRRNYWGQGTQVTVSS	high polyreactivity
QVQLVESGGGLVQAGGTLRLSCAASGYTFVVYAMGWYRQAPGKERELVASISRSGGSTYYADSVKGRFTISRDNAKNTVYLQMNSLKPEDTAVYYCAADVWRVQHRGYNYWGQGTQVTVSS	high polyreactivity
QVQLVESGGGLVQAGGTLRLSCAATGRTFAPNSMGWYRHAPGKERELFAAISWSGTSTYYADSVKGRFTISRDNAKNTVYLQMNSLKPEDTAVYYCAADLEGRVGSPWTYDYWGQGTQVTVSS	low polyreactivity
QVQLVESGGGLVQAGGTLRLSCAATGSIFPGNAMGWYRPAPGKERELVAAISGRGGSTYYADSVKGRFTISRDNAKNTVYVQMNSLKPEDTAVYYCAAAPVYRPRDSYDKHRHYYWGQCTQVTVSS	high polyreactivity
QVQLVESGGGLVQAGGTLRLSCAATGSTFNINAMGWYRQAPGKERELFAAITRGGTNYADSVKGRFTISRDNAKNTVYLQMNSLKPEDTAVYYCAARGTGGSVKVTSLQQGGYWGQGTQVTVSS	high polyreactivity
QVQLVESGGGLVQAGGTLRVSCAASGLIFYGNVMGWYRQAPGKERELVAGISRNSGSTYYADSVKGRFTISRDNANNTVYLQMNSLKPEDTAVYYCAALKFEAWAGEDYWGPGTQVTVSS	low polyreactivity
QVQLVESGGGLVQAGGTLRVSCAASGSTFTTNAMGWSRQAPGTERELFATISGGGSTYYADSVQGRFTISRDNAKNTVYLQMNSLKPDDTAVYYCATDVQVPGIGRSVYAYEYLGQGTQVTVSS	low polyreactivity
QVQLVESGGGLVQAGRCLRLSCAASGITFVPNAMGWSRQAPGKERELVAAISSGGTYADSVKGRFTISRDNAKNTVYLQMNSLKPEDTALYYCNADTDYIRWIYGYWGQVTQVTVSS	low polyreactivity
QVQLVESGGGLVQAGRILRLSCAASGYIFRRYAMGWYRQAPGKERELVAVISSRGGSTYYADSVKGRFTISRDNATKTVYLQMNSLKPEDTAVYYCAARSGSRATFLSDYWGQGNQVTVSS	high polyreactivity
QVQLVESGGGLVQAGRSHRLTCAASGSTDSNAMGWYRQAPGKERELVAAISGTGSRTYYADSVKGRFTISRDNAKNSVYLEMNSLKPEDTAVYYCAASPDVSFRRFSLVVSGDYWGQGNQVTVSS	high polyreactivity
QVQLVESGGGLVQAGRSLRISRAASGSIFYKNVMGWYRQAPGKERELVAAITSGGSTYYADSVKGRFTISRDNAKNTVYFQMNSVYPEYSAVYYWAAGFGRNPVSRYYWGQGTQVTVSS	high polyreactivity
QVQLVESGGGLVQAGRSLRLICAASGSIFRKYAMCWYRQAPVKESELVAAINYSGGNTYYADSVKGRFTISRDNSKNTVYLQMNSLKPEDTAVYFCAADSVRHYWWAYYYWGQVTQVTVSS	low polyreactivity
